# B1: Hairpin Ribozyme (parent)
# chain: GUCCUCUUUCACGUGCGCGUGAAAGAGAGAAGUGAACCAGAGAAACACACGUUGUGGUAUAUUACCUGGUA
# Variants of: B1
# Assay: self-cleavage, relative activity (ratio to wild type); higher = more cleavage; co-transcriptional
row,Variant,self-cleavage
1,GUCCUCUUUCACGUGCGCGUGAAAGAGAGAAGUGAACCAGAGAAACACACGUUGUGGCAUAUUAUCUGGUA,0.55
2,GUCCUCUUUCACGUGCGCGUGAAAGAGAGAAGUGAACCAGAGAAACACACGUUGUGGGAAAUUACCUGGUA,0.714
3,GUCCUCUUUCACGUGCGCGUGAAAGAGAGAAGUGAACCAGAGAAACACACGUUGUGGGAGAUUACCUGGUA,0.731
4,GUCCUCUUUCACGUGCGCGUGAAAGAGAGAAGUGAACCAGAGAAACACACGUUGUGGAAUAUUACUUGGUA,0.335
5,GUCCUCUUUCACGUGCGCGUGAAAGAGAGAAGUGAACCAGAGAAACACACGUUGUGUUGUAUUACCUGGUA,0.231
6,GUCCUCUUUCACGUGCGCGUGAAAGAGAGAAGUGAACCAGAGAAACACACGUUGUGUUCUAUUACCUGGUA,0.188
7,GUCCUCUUUCACGUGCGCGUGAAAGAGAGAAGUGAACCAGAGAAACACACGUUGUGGCAUAUUACCUCGUA,0.243
8,GUCCUCUUUCACGUGCGCGUGAAAGAGAGAAGUGAACCAGAGAAACACACGUUGUGUUAUAUAACCUGGUA,0.146
9,GUCCUCUUUCACGUGCGCGUGAAAGAGAGAAGUGAACCAGAGAAACACACGUUGUGGUCUAUUACCUGCUA,0.216
10,GUCCUCUUUCACGUGCGCGUGAAAGAGAGAAGUGAACCAGAGAAACACACGUUGUGGCAUAUCACCUGGUA,0.178
11,GUCCUCUUUCACGUGCGCGUGAAAGAGAGAAGUGAACCAGAGAAACACACGUUGUGGGAUAUUACCUGCUA,0.142
12,GUCCUCUUUCACGUGCGCGUGAAAGAGAGAAGUGAACCAGAGAAACACACGUUGUGGGAUAUUACCUGAUA,0.292
13,GUCCUCUUUCACGUGCGCGUGAAAGAGAGAAGUGAACCAGAGAAACACACGUUGUGGUCUAUUACCUGGUC,0.304
14,GUCCUCUUUCACGUGCGCGUGAAAGAGAGAAGUGAACCAGAGAAACACACGUUGUGGUCUAUUACUUGGUA,0.107
15,GUCCUCUUUCACGUGCGCGUGAAAGAGAGAAGUGAACCAGAGAAACACACGUUGUGGAGUAUUACCUGGUA,0.122
16,GUCCUCUUUCACGUGCGCGUGAAAGAGAGAAGUGAACCAGAGAAACACACGUUGUGUGAUAUUACCUGGUA,0.0777
17,GUCCUCUUUCACGUGCGCGUGAAAGAGAGAAGUGAACCAGAGAAACACACGUUGUGUCAUAUUACCUGGUA,0.278
18,GUCCUCUUUCACGUGCGCGUGAAAGAGAGAAGUGAACCAGAGAAACACACGUUGUGGUCUAUUACCUCGUA,0.227
19,GUCCUCUUUCACGUGCGCGUGAAAGAGAGAAGUGAACCAGAGAAACACACGUUGUGGUCAAUUACCUGGUA,0.223

row,Variant,self-cleavage
1,GUCCUCUUUCACGUGCGCGUGAAAGAGAGAAGUGAACCAGAGAAACACACGUUGUGGUCGAUUACCUGGUA,0.274
2,GUCCUCUUUCACGUGCGCGUGAAAGAGAGAAGUGAACCAGAGAAACACACGUUGUGGAAUAAUACCUGGUA,0.0926
3,GUCCUCUUUCACGUGCGCGUGAAAGAGAGAAGUGAACCAGAGAAACACACGUUGUGGGAUAUCACCUGGUA,0.271
4,GUCCUCUUUCACGUGCGCGUGAAAGAGAGAAGUGAACCAGAGAAACACACGUUGUGUUAUGUUACCUGGUA,0.296
5,GUCCUCUUUCACGUGCGCGUGAAAGAGAGAAGUGAACCAGAGAAACACACGUUGUGGCAUAUUACCUGGUG,1.31
6,GUCCUCUUUCACGUGCGCGUGAAAGAGAGAAGUGAACCAGAGAAACACACGUUGUGGCAUAUUACCUGGUU,0.935
7,GUCCUCUUUCACGUGCGCGUGAAAGAGAGAAGUGAACCAGAGAAACACACGUUGUGUUAUAUUCCCUGGUA,0.139
8,GUCCUCUUUCACGUGCGCGUGAAAGAGAGAAGUGAACCAGAGAAACACACGUUGUGUUAUAUUGCCUGGUA,0.202
9,GUCCUCUUUCACGUGCGCGUGAAAGAGAGAAGUGAACCAGAGAAACACACGUUGUGUUAUAUUUCCUGGUA,0.173
10,GUCCUCUUUCACGUGCGCGUGAAAGAGAGAAGUGAACCAGAGAAACACACGUUGUGUUAUAUUACCUGGUC,0.738
11,GUCCUCUUUCACGUGCGCGUGAAAGAGAGAAGUGAACCAGAGAAACACACGUUGUGCUAUAUUACCGGGUA,0.123
12,GUCCUCUUUCACGUGCGCGUGAAAGAGAGAAGUGAACCAGAGAAACACACGUUGUGCUAUAUUACCCGGUA,0.114
13,GUCCUCUUUCACGUGCGCGUGAAAGAGAGAAGUGAACCAGAGAAACACACGUUGUGUUAUAUUACCAGGUA,0.166
14,GUCCUCUUUCACGUGCGCGUGAAAGAGAGAAGUGAACCAGAGAAACACACGUUGUGUUAUAUUACCCGGUA,0.116
15,GUCCUCUUUCACGUGCGCGUGAAAGAGAGAAGUGAACCAGAGAAACACACGUUGUGUUAUAAUACCUGGUA,0.0927
16,GUCCUCUUUCACGUGCGCGUGAAAGAGAGAAGUGAACCAGAGAAACACACGUUGUGUUAAAUUACCUGGUA,0.114
17,GUCCUCUUUCACGUGCGCGUGAAAGAGAGAAGUGAACCAGAGAAACACACGUUGUGUUACAUUACCUGGUA,0.246
18,GUCCUCUUUCACGUGCGCGUGAAAGAGAGAAGUGAACCAGAGAAACACACGUUGUGGCAUGUUACCUGGUA,0
19,GUCCUCUUUCACGUGCGCGUGAAAGAGAGAAGUGAACCAGAGAAACACACGUUGUGGUCUAUUACCUGGAA,0.112

# — the RNAGym collection of RNA variant scans (doi:10.7554/elife.80360)
